T1: Myo5 SH3 (MYO5_YEAST), Q04439
T1 chain: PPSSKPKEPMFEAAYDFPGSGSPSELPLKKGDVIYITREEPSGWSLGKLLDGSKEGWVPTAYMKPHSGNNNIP

T2: Rvs167 SH3 (RV167_YEAST), P39743
T2 chain: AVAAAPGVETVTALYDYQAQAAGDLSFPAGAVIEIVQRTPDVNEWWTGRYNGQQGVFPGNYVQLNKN

T3: Boi2 SH3 (BOI2_YEAST), P39969
T3 chain: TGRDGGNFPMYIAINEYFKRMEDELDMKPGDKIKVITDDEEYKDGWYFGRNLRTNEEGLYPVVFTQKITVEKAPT

T4: Yfr024 SH3 (LSB3_YEAST), P43603
T4 chain: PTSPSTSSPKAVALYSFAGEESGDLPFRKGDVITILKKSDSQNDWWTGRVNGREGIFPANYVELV

T5: Boi1 SH3 (BOI1_YEAST), P38041
T5 chain: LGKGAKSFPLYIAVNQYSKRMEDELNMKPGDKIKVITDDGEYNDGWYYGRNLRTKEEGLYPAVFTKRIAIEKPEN

T6: Yhr016c SH3 (YSC84_YEAST), P32793
T6 chain: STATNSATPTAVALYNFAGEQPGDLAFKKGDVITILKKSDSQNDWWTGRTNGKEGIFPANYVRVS


Columns and labels:
Assay in all cases: SPOT array
[1] = target: T1, Myo5 SH3 (MYO5_YEAST), Q04439
[2] = target: T2, Rvs167 SH3 (RV167_YEAST), P39743
[3] = target: T3, Boi2 SH3 (BOI2_YEAST), P39969
[4] = target: T4, Yfr024 SH3 (LSB3_YEAST), P43603
[5] = target: T5, Boi1 SH3 (BOI1_YEAST), P38041
[6] = target: T6, Yhr016c SH3 (YSC84_YEAST), P32793
[7] = target: Sho1 SH3 (SHO1_YEAST), P40073
Chain of Sho1 SH3 (SHO1_YEAST), P40073 (P40073 295-366): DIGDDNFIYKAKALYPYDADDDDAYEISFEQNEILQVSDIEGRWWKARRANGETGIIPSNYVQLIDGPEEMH

| Binder | normalised SPOT signal, Boehringer light units (BLU); mean over the file's lines of this peptide [1] | normalised SPOT signal, Boehringer light units (BLU); mean over the file's lines of this peptide [2] | normalised SPOT signal, Boehringer light units (BLU); mean over the file's lines of this peptide [3] | normalised SPOT signal, Boehringer light units (BLU); mean over the file's lines of this peptide [4] | normalised SPOT signal, Boehringer light units (BLU); mean over the file's lines of this peptide [5] | normalised SPOT signal, Boehringer light units (BLU); mean over the file's lines of this peptide [6] | normalised SPOT signal, Boehringer light units (BLU); mean over the file's lines of this peptide [7] |
| --- | --- | --- | --- | --- | --- | --- | --- |
| NESEKSSPWSPYKV [YBR156C 157-170] | 222 | 74.7 | 28.4 | 408 | 96.5 | 30.5 | 26.5 |
| NGMPRRIPDYPDAF [Q0045 434-447] | 223 | 338 | 318 | 1300 | 404 | 858 | 28.9 |
| NAPERAVPILPPRN [YBR108W 539-552] | 741 | 16500 | 83 | 24400 | 3280 | 36600 | 52.7 |
| NAPPRIFPKAPIYG [YDR283C 1060-1073] | 168 | 156 | 40.1 | 2080 | 8550 | 186 | 140 |
| MYGSKFIPFGPKSQ [YER038C 415-428] | 290 | 375 | 326 | 898 | 131 | 118 | 145 |
| NAQLRKTPLEPGLE [YDL126C 668-681] | 176 | 116 | 88.8 | 371 | 156 | 79.9 | 48.6 |
| NDLVKRFPEQPPLR [YBR195C 105-118] | 21400 | 23000 | 4920 | 1590 | 75800 | 1430 | 12100 |

Now from value to binder:

| normalised SPOT signal, Boehringer light units (BLU); mean over the file's lines of this peptide [1] | normalised SPOT signal, Boehringer light units (BLU); mean over the file's lines of this peptide [2] | normalised SPOT signal, Boehringer light units (BLU); mean over the file's lines of this peptide [3] | normalised SPOT signal, Boehringer light units (BLU); mean over the file's lines of this peptide [4] | normalised SPOT signal, Boehringer light units (BLU); mean over the file's lines of this peptide [5] | normalised SPOT signal, Boehringer light units (BLU); mean over the file's lines of this peptide [6] | normalised SPOT signal, Boehringer light units (BLU); mean over the file's lines of this peptide [7] | Binder |
| --- | --- | --- | --- | --- | --- | --- | --- |
| 140 | 47.9 | 17.3 | 63.4 | 52.4 | 37.1 | 26 | NDDKKTEPDKPAFS [YJL041W 186-199] |
| 114 | 56.7 | 54 | 710 | 71 | 203 | 13000 | NDMAKPLPTPPTAE [YOR188W 2-15] |
| 176 | 60.6 | 22 | 246 | 462 | 17.2 | 32.2 | NELIKQGPKRPTSA [YMR072W 36-49] |
| 618 | 67.9 | 28.4 | 679 | 228 | 95.9 | 74.5 | NFPQRMMPPPPGLV [YKL204W 475-488] |
| 300 | 55.2 | 7.9 | 211 | 733 | 101 | 37.2 | NELVKRFPGHPPLR [YHR108W 109-122] |
| 357 | 1490 | 395 | 1600 | 7810 | 742 | 569 | MYDRKVIPRMPWHD [YKR031C 861-874] |
| 98.5 | 80.7 | 61 | 36.9 | 212 | 20.6 | 39.5 | NDNEKKKPSSPTAA [YLL010C 80-93] |
| 2620 | 127 | 31.9 | 12900 | 664 | 162 | 2640 | NGKDKSRPPRPPPK [YIL095W 742-755] |
| 135 | 69 | 12.3 | 132 | 24.4 | 7.9 | 99.4 | NEFAKFAPDLPVLK [YFR038W 287-300] |

From article PMC314469, “Protein Interaction Networks by Proteome Peptide Scanning” (PLoS Biology, 2004)
